Results as given in paper PMC9795466.

Target: thrombin (human, UniProt P00734;P00734 328-363;364-622)
Experiment: organic electrochemical transistor

Work on TTTTTAGTCCGTGGTAGGGCAGGTTGGGGTGACT (ssDNA, 5' DBCO-TEG) [DBCO-HD22 thrombin aptamer] yielded a Kd of 103 ± 44 nM.
